“And” between values parts separate entries of the source, which are not always exact repeats. Equal entries are not always repeated.
Experiments:
[1] = system: TSEN2 H377A (inactive);TSEN34 H255A (inactive);TSEN15;TSEN54 (Homo sapiens;Homo sapiens;Homo sapiens;Homo sapiens); experiment: competition (fluorescence anisotropy); settings: competitor of 3'-Cy5 pre-tRNA-Phe; FA: 50 mM HEPES-NaOH pH 7.4, 100 mM NaCl, 22 °C, 70 nM Cy5-RNA; EMSA: same buffer + 1 mM DTT, 4% glycerol, on ice, 10 nM RNA; pull-down: 50 mM HEPES-NaOH pH …
[2] = system: TSEN2 H377A (inactive);TSEN34 H255A (inactive);TSEN15;TSEN54 (Homo sapiens;Homo sapiens;Homo sapiens;Homo sapiens); experiment: fluorescence anisotropy; settings: FA: 50 mM HEPES-NaOH pH 7.4, 100 mM NaCl, 22 °C, 70 nM Cy5-RNA; EMSA: same buffer + 1 mM DTT, 4% glycerol, on ice, 10 nM RNA; pull-down: 50 mM HEPES-NaOH pH …
[3] = target: T1, heterotetrameric tRNA splicing endonuclease TSEN (TSEN2–15–34–54) (human, UniProt Q8NCE0 1-465; Q8WW01 1-171; Q9BSV6 1-310; Q7Z6J9 1-526, high degree of phosphorylation (sites not given)); experiment: native MS; purified wt TSEN (1.09 mg/ml) and wt TSEN/CLP1 (1.88 mg/ml) from insect cells, exchanged into 200 mM ammonium acetate pH 7.5; Q-ToF modified for high-mass complexes; settings: both partners purified
T1 construct: human TSEN2, open reading frame, UniProtKB Q8NCE0; human TSEN15, open reading frame, UniProtKB Q8WW01; human TSEN34, open reading frame, UniProtKB Q9BSV6; human TSEN54, open reading frame, UniProtKB Q7Z6J9; His tags were removed with TEV protease; also called tetrameric TSEN; TSEN2–15–34–54 heterotetramer; source: Sf21 insect cells (baculovirus), co-expressed (with CLP1), purified (Ni-NTA, …)
T1 sequence (looked up) 1: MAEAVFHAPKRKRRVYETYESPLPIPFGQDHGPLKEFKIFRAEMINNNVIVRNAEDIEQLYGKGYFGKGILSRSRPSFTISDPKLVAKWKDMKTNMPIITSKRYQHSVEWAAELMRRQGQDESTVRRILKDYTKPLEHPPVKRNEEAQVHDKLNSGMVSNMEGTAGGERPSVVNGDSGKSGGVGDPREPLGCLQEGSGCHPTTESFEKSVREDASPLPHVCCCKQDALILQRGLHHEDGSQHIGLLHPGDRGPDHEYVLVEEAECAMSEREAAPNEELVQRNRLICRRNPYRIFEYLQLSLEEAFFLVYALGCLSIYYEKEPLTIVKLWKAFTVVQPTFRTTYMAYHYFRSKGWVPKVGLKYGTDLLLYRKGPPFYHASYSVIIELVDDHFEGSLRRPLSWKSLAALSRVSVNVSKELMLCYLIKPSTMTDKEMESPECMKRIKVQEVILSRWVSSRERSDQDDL
T1 sequence (looked up) 2: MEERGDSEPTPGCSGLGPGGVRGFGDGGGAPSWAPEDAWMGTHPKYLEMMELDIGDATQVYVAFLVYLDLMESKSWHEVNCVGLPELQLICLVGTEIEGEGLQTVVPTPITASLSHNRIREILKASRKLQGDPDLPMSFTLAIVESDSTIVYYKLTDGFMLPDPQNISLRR
T1 sequence (looked up) 3: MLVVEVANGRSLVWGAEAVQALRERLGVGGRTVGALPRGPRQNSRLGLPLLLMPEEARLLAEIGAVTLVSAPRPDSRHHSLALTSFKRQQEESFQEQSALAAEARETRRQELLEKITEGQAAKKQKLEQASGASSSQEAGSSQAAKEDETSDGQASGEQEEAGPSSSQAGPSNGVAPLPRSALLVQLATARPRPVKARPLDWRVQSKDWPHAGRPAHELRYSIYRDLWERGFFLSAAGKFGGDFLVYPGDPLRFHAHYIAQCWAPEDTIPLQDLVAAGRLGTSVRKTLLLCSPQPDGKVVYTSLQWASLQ
T1 sequence (looked up) 4: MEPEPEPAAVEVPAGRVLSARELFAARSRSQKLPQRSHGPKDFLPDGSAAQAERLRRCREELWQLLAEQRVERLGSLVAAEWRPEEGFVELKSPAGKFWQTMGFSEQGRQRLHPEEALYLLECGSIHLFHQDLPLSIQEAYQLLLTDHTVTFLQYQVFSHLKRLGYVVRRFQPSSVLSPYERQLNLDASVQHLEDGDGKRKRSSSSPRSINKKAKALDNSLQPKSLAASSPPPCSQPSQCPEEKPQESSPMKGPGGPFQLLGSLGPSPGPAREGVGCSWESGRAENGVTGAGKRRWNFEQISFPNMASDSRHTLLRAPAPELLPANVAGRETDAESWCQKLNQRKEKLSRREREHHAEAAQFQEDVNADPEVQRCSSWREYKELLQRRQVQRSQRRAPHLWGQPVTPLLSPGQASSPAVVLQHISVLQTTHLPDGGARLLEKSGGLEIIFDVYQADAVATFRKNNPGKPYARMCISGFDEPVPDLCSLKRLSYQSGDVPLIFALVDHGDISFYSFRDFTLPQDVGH

[4] = target: the molecule itself; experiment: SEC-MALS; 330 µg TSEN15–34 complex at 1.65 mg/ml, Superdex 200 Increase, 25 mM HEPES-NaOH pH 7.5, 250 mM NaCl; heterodimer to dimer of heterodimers at high protein concentration

S.c. pre-tRNA-Phe(GAA), unlabeled
Ki [1]: 197 nM

S.c. pre-tRNA-Phe(GAA), 3'-Cy5
Kd [2]: 173 nM

S.c. mature tRNA-Phe(GAA), 3'-Cy5
Kd [2]: 149 nM

B1: RNA kinase CLP1 (enzyme, human, UniProt Q92989 1-425, looked up)
chain: MGEEANDDKKPTTKFELERETELRFEVEASQSVQLELLTGMAEIFGTELTRNKKFTFDAGAKVAVFTWHGCSVQLSGRTEVAYVSKDTPMLLYLNTHTALEQMRRQAEKEEERGPRVMVVGPTDVGKSTVCRLLLNYAVRLGRRPTYVELDVGQGSVSIPGTMGALYIERPADVEEGFSIQAPLVYHFGSTTPGTNIKLYNKITSRLADVFNQRCEVNRRASVSGCVINTCGWVKGSGYQALVHAASAFEVDVVVVLDQERLYNELKRDLPHFVRTVLLPKSGGVVERSKDFRRECRDERIREYFYGFRGCFYPHAFNVKFSDVKIYKVGAPTIPDSCLPLGMSQEDNQLKLVPVTPGRDMVHHLLSVSTAEGTEENLSETSVAGFIVVTSVDLEHQVFTVLSPAPRPLPKNFLLIMDIRFMDLK
notes: human CLP1, open reading frame, UniProtKB Q92989; source: Sf21 insect cells (baculovirus), co-expressed with the four TSEN subunits, purified (Ni-NTA, heparin, TEV, SEC); not shown: His6, N-terminal, cleaved
stoichiometry N [3]: 1 and 2

B2: truncated TSEN15–34 complex (TSEN15 residues 23–170 and TSEN34 residues 208–310) (complex, human)
chain 1: GFGDGGGAPSWAPEDAWMGTHPKYLEMMELDIGDATQVYVAFLVYLDLMESKSWHEVNCVGLPELQLICLVGTEIEGEGLQTVVPTPITASLSHNRIREILKASRKLQGDPDLPMSFTLAIVESDSTIVYYKLTDGFMLPDPQNISLR
chain 2: DWPHAGRPAHELRYSIYRDLWERGFFLSAAGKFGGDFLVYPGDPLRFHAHYIAQCWAPEDTIPLQDLVAAGRLGTSVRKTLLLCSPQPDGKVVYTSLQWASLQ
notes: human TSEN15, UniProtKB Q8WW01, residues 23–170; The SEC-MALS methods speak only of 'TSEN15–34 complex'; also called minimal TSEN15–34 complex; source: Sf21 insect cells (baculovirus), co-expressed, purified (Ni-NTA, TEV, SEC); not shown: His10, N-terminal, cleaved
stoichiometry N [4]: 2
